Experimental data reported in patent publication US20250313629A1 (Hoffmann-La Roche, published 2025).
Numbering of substitutions follows the chain as printed.

T1: Lag3 expressed on cells (recombinant CHO cells expressing Lag3; Lag3+ NFAT Jurkat effector cells) (human, UniProt P18627 29-525)
T1 sequence: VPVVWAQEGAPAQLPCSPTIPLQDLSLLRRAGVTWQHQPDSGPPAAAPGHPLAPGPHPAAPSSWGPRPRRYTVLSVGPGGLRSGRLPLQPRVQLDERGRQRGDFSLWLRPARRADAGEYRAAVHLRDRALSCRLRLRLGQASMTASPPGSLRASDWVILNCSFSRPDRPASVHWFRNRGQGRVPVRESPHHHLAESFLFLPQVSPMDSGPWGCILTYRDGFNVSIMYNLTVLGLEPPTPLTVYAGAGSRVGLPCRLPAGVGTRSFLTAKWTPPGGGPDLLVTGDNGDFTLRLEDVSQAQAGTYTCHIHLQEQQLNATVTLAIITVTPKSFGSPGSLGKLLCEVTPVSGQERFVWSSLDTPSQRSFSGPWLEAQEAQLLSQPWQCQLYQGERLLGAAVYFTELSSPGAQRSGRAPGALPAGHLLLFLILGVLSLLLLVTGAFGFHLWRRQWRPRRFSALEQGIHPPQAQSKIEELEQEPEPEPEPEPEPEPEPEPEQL

T2: biotinylated-Lag3 (UniProt P18627 23-450, limits assumed, biotinylated (site not stated))
T2 construct: also called LAG-3 (A375 MHC-II ELISA)
T2 sequence (looked up): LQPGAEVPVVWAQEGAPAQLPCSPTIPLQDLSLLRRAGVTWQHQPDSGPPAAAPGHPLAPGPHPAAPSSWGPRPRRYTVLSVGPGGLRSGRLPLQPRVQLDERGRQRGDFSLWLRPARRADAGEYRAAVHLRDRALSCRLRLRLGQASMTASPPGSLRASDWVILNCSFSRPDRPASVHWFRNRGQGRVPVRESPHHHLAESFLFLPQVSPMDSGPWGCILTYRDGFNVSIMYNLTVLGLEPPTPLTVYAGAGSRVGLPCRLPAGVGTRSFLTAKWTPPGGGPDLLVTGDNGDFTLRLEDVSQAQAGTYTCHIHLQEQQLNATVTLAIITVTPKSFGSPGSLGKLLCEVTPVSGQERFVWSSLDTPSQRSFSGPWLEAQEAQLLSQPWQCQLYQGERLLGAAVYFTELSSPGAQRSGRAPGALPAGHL

B1: MDX25F7 (25F7) (antibody, V domains shown)
VH: QVQLQQWGAGLLKPSETLSLTCAVYGGSFSDYYWNWIRQPPGKGLEWIGEINHNGNTNSNPSLKSRVTLSLDTSKNQFSLKLRSVTAADTAVYYCAFGYSDYEYNWFDPWGQGTLVTVSS
VL: EIVLTQSPATLSLSPGERATLSCRASQSISSYLAWYQQKPGQAPRLLIYDASNRATGIPARFSGSGSGTDFTLTISSLEPEDFAVYYCQQRSNWPLTFGQGTNLEIK
notes: also called Medarex 25F7
B2: humanized BAP050 (LAG525) (antibody, V domains shown)
VH: QIQLVQSGPELKKPGETVKISCKASGFTLTNYGMNWVRQTPGKGLKWMGWINTDTGEPTYADDFKGRFAFSLETSASTASLQINNLKNADTATYFCARNPPYYYGTNNAEAMDYWGQGTTVTVSS
VL: DIQMTQTTSSLSASLGDRVTISCSSSQDISNYLMWYQQKPDGTVKVLIYYTSTLHLGVPSRFSGSGSGTDYSLTISNLELEDIATYYCQQYYNLPWTFGQGTKVEIK
B3: aLAG3(0411) (antibody, V domains shown)
VH: EVHLLESGGGLVQPGGSLRLSCAASGFIVDDYTMNWVRQAPGKGLEWVSVISWDGGATYYADSVKGRFTISRDDFKNTLYLQMNSLRAEDTAVYYCAKGLTDDTLYGSDYWGQGTLVTVSS
VL: DIQMTQSPSSLSASVGDRVTITCRASQSIVSYLNWYQQKPGKAPKLLIYASSSLQSGVPSRFSGSGSGTDFTLTISSLQPEDFATYYCQQTYSTPLTFGGGTKVEIK
notes: also called aLAG3 (411)
B4: aLAG3(0416) (antibody, V domains shown)
VH: EVQLVESGGGLVQPGGSLRLACAASGFTFSDYAMSWVRQAPGKGLEWVSGIDNSGYYTYYTDSVKGRFTISRDDVKNTLYLQMNSLRAEDTAVYLCTKTHSGLIVNDAFDIWGQGTMVTVSS
VL: B3 VL with M4L, V30S, A50D, S51A, Q55E, F71A, T91S
notes: also called aLAG3 (416)
B5: aLAG3(0414) (antibody, V domains shown)
VH: B3 VH with H3Q, V29F, S49A, A57G, A61T, D103T
VL: B3 VL with V30S, S51A, S53T, T94S
notes: also called aLAG3 (414)
B6: aLAG3(0417) (antibody, V domains shown)
VH: B4 VH
VL: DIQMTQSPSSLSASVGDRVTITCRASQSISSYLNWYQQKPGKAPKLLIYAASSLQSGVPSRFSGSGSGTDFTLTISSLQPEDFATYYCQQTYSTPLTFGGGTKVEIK
notes: also called aLAG3 (417)
B7: BMS-986016 (antibody, V domains shown)
VH: B1 VH with N54R, N56S
VL: B1 VL
B8: aLAG3(0403) (antibody, V domains shown)
VH: EVQLLESGGGLVQPGGSLRLSCAASGFTFDDYTMHWVRQAPGKGLEWVSLVSWDGGGTYYTNSVKGRFTISRDNSKNTLYLQMNSLRAEDTAVYFCAKAITDTSLYGYDYWGQGILVTVSS
VL: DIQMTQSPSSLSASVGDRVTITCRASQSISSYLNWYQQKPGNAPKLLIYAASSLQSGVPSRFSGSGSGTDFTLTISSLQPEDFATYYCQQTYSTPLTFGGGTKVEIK
notes: also called anti-Lag3 aLAG3 (0403)

molecular target: T1, Lag3 expressed on cells (recombinant …); experiment: cell-based or functional assay

| Binder | EC50 [nM] in Jurkat LAG3 + SED + Raji, 2nd assay | EC50 [nM] in Jurkat LAG3 + SED + Raji, 1st assay | EC50 [nM] in Jurkat LAG3 + SED + Raji, 3rd assay |
| --- | --- | --- | --- |
| B1 | 8.6 nM | – | – |
| B2 | 22.6 nM | – | – |
| B3 | 1 nM | 1.1 nM | – |
| B4 | 2.5 nM | 3.1 nM | 3.5 nM |
| B5 | 1 nM | 1.1 nM | 1.8 nM |
| B6 | – | 1 nM | – |

molecular target: T3, cynomolgus Lag3 on cells (HEK293F cells transiently transfected with cyno-LAG-3); activated cynomolgus PBMC/T … (cynomolgus); experiment: flow cytometry on CD3/CD28-activated cynomolgus PBMC, antibody at 10 ug/ml
T3 construct: whole, on cells
Method: Thus, cynomolgus peripheral blood mononuclear cells (PBMC) were prepared from fresh cynomolgus blood and were then activated by CD3/CD28 pre-treatment (1 μg/ml) for 2-3 days. […] After staining, cells were washed two times with PBS/2% FCS and analyzed on a FACS Fortessa (BD).

| Binder | percentage of Lag3 positive cells |
| --- | --- |
| B1 | 22.1% |
| B7 | 18.6% |
| B2 | 50.7% |
| B3 | 46.6% |
| B4 | 38.9% |
| B5 | 43% |
| B6 | 35.3% |
| B8 | 44.2% |

molecular target: T2, biotinylated-Lag3; experiment: competition cell ELISA: antibody pre-incubated with biotinylated Lag3, binding to MHC-II on A375 cells
Method: 25 μl/well of A375 cells (10000 cells/well) were seeded into tissue culture treated 384-well plates (Corning, 3701) and incubated at 37° C. overnight. […] After washing (1×90 μl in PBST) cells were fixed by addition of 30 μl/well glutaraldehyde to a final concentration of 0.05% (Sigma Cat.No: G5882), 10 min at room temperature. After washing (3×90 μl/well with PBST-buffer) 25 μl/well Poly-HRP40-Streptavidin (Fitzgerald, 65R-S104PHRPx) was added in a 1:2000 or 1:8000 dilution and incubated at RT for 1 h. After washing (3×90 μl/well with PBST-buffer) 25 μl/well TMB substrate (Roche, 11835033001) was added and incubated for 2 to 10 min. Measurement took place on a Tecan Safire 2 instrument at 370/492 nm.

| Binder | IC50 |
| --- | --- |
| B2 | 1 nM |
